What all share (experiment): ITC
(In general: ITC needs no label: the signal is the heat of the interaction.)

In assay [1] the target is T1, SERK3^F60A LRR ectodomain (A. thaliana, UniProt Q94F62 26-220, F60A).
T1 sequence (looked up): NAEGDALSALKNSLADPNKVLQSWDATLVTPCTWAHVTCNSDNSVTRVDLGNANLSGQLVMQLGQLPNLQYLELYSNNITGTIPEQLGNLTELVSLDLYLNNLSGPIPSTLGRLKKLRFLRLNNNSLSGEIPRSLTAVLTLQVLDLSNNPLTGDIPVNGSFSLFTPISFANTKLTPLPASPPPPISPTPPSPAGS

The target in assay [2] is T2, SERK3 LRR ectodomain (SERK3^1-220), wild type (A. thaliana, UniProt Q94F62 26-220).
T2 sequence (looked up): T1 sequence (looked up) with A35F

Assay [3] has as its target T3, SERK3^D122N LRR ectodomain (elg) (A. thaliana, UniProt Q94F62 26-220, D122N).
T3 sequence (looked up): T1 sequence (looked up) with A35F, D97N

Assay [4] has as its target different SERK ectodomains.

Changes are numbered by the printed parent chain. Names may count otherwise.

B1: BIR2 LRR ectodomain (BIR2^1-222), wild type (domain or fragment, A. thaliana, UniProt Q9LSI9 29-222, looked up)
chain: ADEDDIRCLRGLKASLTDPQNALKSWNFDNTTLGFLCNFVGVSCWNNQENRVINLELRDMGLSGKIPDSLQYCASLQKLDLSSNRLSGNIPTELCNWLPFLVSLDLSNNELNGEIPPDLAKCSFVNSLVLSDNRLSGQIPVQFSALGRLGRFSVANNDLSGRIPVFFSSPSYSSDDFSGNKGLCGRPLSSSCGG
modifications: N-glycan at Asn58 (in the crystal structure)
In the case of B1, the binding result in assay [1] and in assay [2] was “binds” throughout. Moreover, the “fold reduction of binding against wild-type SERK3” value in assay [3] is about 8 fold. In assay [4], the Kd (commonly the constant that tells how readily two partners part at equilibrium) fell in the range of 1000 to 3000 nM.

B2: BIR2^E84R LRR ectodomain (domain or fragment, A. thaliana, UniProt Q9LSI9 29-222, looked up)
chain: B1 chain with E56R
For the molecule B2, in assay [2], the binding result is “binds”.

B3: BIR2^W73A LRR ectodomain (domain or fragment, A. thaliana, UniProt Q9LSI9 29-222, looked up)
chain: B1 chain with W45A
On to B3, for which, in assay [2], the binding result is “binds”.

B4: BIR2^V157D LRR ectodomain (domain or fragment, A. thaliana, UniProt Q9LSI9 29-222, looked up)
chain: B1 chain with V129D
B4: in assay [2], the binding result is reported as “binds”.

B5: BIR3 LRR ectodomain (BIR3^1-213) (domain or fragment, A. thaliana, UniProt O04567 25-213, looked up)
chain: EDDVLCLQGLKNSLIDPSSRLSSWSFPNSSASSICKLTGVSCWNEKENRIISLQLQSMQLAGEIPESLKLCRSLQSLDLSGNDLSGSIPSQICSWLPYLVTLDLSGNKLGGSIPTQIVECKFLNALILSDNKLSGSIPSQLSRLDRLRRLSLAGNDLSGTIPSELARFGGDDFSGNNGLCGKPLSRCGA
modifications: N-glycosylated (fully glycosylated in the crystal; sites not given)
Take B5: the Kd in assay [2] was about 1000 nM; in assay [4], 1000 to 3000 nM. Also, the stoichiometry N – broadly, a count of units in the complex or per binding partner – in assay [2] stood at 1. Moreover, the “fold reduction of binding against wild-type SERK3” value in assay [3] is about 4 fold.

These data come from doi:10.1101/257543 (bioRxiv, 2018).
